Measurements: article PMC8025780 (Biochemistry, 2020)

Molecular target: the molecule itself
Experiment: SAXS

B1: Staphylococcus aureus GbaA, disulfide cross-linked (oxidized) (natural protein)
chain: MRKDAKENRQRIEEIAHKLFDEEGVENISMNRIAKELGIGMGTLYRHFKDKSDLCYYVIQRDLDIFITHFKQIKDDYHSNYEVMQVSLDYLLQFKIDNKALLQCIEAGNNKLRFYQSAFYQELFDFYYDLFKSDDDTYTKFKTDMLLQSLSTSVFAFQIEHRHISIEAYRNYLLNIYLDEVGRND
modifications: intraprotomer disulfide C55-C104
  stoichiometry N: 2
